The source of these data is publication PMC9614494, “Glutamate 1-semialdehyde aminotransferase is connected to GluTR by GluTR-binding protein and contributes to the rate-limiting step of 5-aminolevulinic acid synthesis” (The Plant Cell, 2022).

First the molecules themselves.
B1: recombinant 6xHis-GSAAT (enzyme)
chain: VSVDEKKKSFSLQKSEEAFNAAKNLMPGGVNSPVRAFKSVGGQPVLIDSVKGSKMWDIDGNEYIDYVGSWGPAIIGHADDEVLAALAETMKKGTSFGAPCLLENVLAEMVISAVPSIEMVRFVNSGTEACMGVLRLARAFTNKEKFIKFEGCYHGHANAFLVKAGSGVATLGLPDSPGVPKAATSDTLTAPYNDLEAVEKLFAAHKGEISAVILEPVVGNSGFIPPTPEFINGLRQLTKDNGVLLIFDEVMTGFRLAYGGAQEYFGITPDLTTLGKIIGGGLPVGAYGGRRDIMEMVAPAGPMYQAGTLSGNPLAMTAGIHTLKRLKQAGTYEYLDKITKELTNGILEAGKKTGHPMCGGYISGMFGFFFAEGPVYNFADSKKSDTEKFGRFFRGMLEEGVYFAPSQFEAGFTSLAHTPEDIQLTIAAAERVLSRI
B2: recombinant 6xHis-GBP (natural protein, Arabidopsis thaliana, UniProt Q9LU39 43-317, looked up)
chain: SVSTTLDTPATASTHKPFPAEVSRSIMELSSVGTLSTLTHDGWPLGVGVRFAVDKDGTPVLCLNRSVSPDKRSALHVQLEQCGLRTPQCTIQGSIGRPGDDTVLKRLSATWREKFGEEVKEDSLYVVAVDRVLQMEDFMEDGIWVASSDYKNASPDPLRDIAEDIVNQINANNMEDIFRFCNVYVDLDFVVSETKMIWMDRLGFDLRVWSPRGVYDVRIPFPMEVTDEKGAKSSFNGMSQLAWEVEKSYCPADFNKVKLLKQVVGSSHSHKGGGQ
notes: Labelled with the dye RED-NHS 2nd generation where it was the MST target; unlabelled in the in vitro pull-down; also called 6× His-GBP; source: E. coli Rosetta 2, purified (Ni-NTA)

Common to all, as to conditions: both partners purified
For test [1], the target named is T1, labelled 6xHis-GBP incubated with GluTR (GBP/GluTR) (Arabidopsis thaliana, UniProt Q9LU39 43-317; P42804 62-543, RED-NHS 2nd generation dye).
T1 construct: as m7; Glutamyl-tRNA reductase (GluTR), Arabidopsis thaliana; The sentence on this titration says only GluTR; 6xHis-GluTR is named for the titration before it; source: recombinant proteins mixed before the titration (6xHis-GBP: E. coli Rosetta 2, purified)
As to the kind of experiment: MST; 6xHis-GBP labelled with RED-NHS 2nd generation as target, with or without GluTR, ligand in 1:1 dilutions from 5 nM to 110 µM; Monolith NT.115, 30°C, 40% LED power, PBS.

The target in test [2] is T2, recombinant 6xHis-GluTR (Arabidopsis thaliana, UniProt P42804 62-543).
T2 construct: Glutamyl-tRNA reductase (GluTR), Arabidopsis thaliana; Named only in the results on MST; the methods on purification list only GST-GluTR
As to the kind of experiment: MST; 6xHis-GSAAT labelled with RED-NHS 2nd generation as target, 6xHis-GluTR titrated; Monolith NT.115, 30°C, PBS.

For test [3], the target named is B1. Nature of the test: MST; 6xHis-GBP labelled with RED-NHS 2nd generation as target, with or without GluTR, ligand in 1:1 dilutions from 5 nM to 110 µM; Monolith NT.115, 30°C, 40% LED power, PBS.

As for B1, the Kd in test [1] was found to be 940 nM; in test [2], 3000 nM.

With B2, the Kd in test [3] turned out to be 178 nM.

In general, Kd refers to a measure of binding affinity in units of concentration.
